Experimental data reported in patent US20260234242A1 (HAINAN SIMCERE ZAIMING PHARMACEUTICAL, published 2026).
Substitutions are numbered along the chain they refer to. Read-outs that look alike come from different tables or passages of the source. Blank lines part the entries; values can stand above or below the binder they belong to.

How the values were obtained:
[1] = target: T1, human CDH6 on tumor cells (OVCAR3 cells, PA-1 cells) (human, UniProt P55285 54-790); assay: FACS, PA-1 cells
T1 sequence: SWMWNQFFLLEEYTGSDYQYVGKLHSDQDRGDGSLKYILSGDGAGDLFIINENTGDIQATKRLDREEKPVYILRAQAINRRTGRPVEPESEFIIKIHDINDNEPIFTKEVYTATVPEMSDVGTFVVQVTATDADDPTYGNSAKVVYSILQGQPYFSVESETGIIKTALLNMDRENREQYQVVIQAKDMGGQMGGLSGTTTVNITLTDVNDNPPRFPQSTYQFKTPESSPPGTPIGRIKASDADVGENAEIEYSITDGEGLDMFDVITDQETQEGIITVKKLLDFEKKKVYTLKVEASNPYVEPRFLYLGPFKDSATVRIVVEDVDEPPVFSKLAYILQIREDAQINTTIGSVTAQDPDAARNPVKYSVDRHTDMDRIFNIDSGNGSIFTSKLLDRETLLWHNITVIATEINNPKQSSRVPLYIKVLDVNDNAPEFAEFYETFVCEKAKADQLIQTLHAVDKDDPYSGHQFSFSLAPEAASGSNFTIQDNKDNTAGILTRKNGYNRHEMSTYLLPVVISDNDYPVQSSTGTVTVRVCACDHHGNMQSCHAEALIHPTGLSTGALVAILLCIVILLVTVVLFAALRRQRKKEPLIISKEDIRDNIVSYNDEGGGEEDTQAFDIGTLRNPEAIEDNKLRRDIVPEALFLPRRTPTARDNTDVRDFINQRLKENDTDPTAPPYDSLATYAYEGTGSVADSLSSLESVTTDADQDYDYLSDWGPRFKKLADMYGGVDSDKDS
Experimental: (§1) OVCAR3 cells with high expression of CDH6 and PA-1 cells with moderate expression of CDH6 were used to detect the binding activity of the antibodies to the cells. […] The cells were washed once with PBS, counted, resuspended to 2×10⁶ cells/mL in an FACS buffer (PBS+2% FBS), and then added to a 96-well plate at 50 μL/well. The chimeric antibodies were diluted with FACS buffer (PBS+2% FBS) and added to the 96-well plate at 50 μL/well, and the plate was incubated at 4° C. for 1 h. […] The dilution was added to the 96-well plate at 50 μL/well, and the plate was incubated at 4° C. for 1 h. After the plates were centrifuged and washed 2 times with PBS, the cells were resuspended in an FACS buffer. The mean fluorescence intensity (MFI) was measured using FACS Canton II (BD). Analysis was performed by the GraphPad Prism software, data were fitted, and EC50 values were calculated. The chimeric antibodies tested had strong binding to both OVCAR3 cells and PA-1 cells.
(§2) According to the above sequences, heavy chain (HC) and light chain (LC) plasmids were constructed (the nucleic acid sequences encoding the VH and VL of the antibodies were recombined into an expression vector carrying a signal peptide (SEQ ID NO: 132, […]) and a heavy chain constant region/light chain constant region sequence to obtain recombinant plasmids expressing VH-CH1-Fc/VL-CL). According to the expression and purification methods in Example 2, the hCDH6-14 humanized antibodies were obtained, and the binding activity of the humanized antibodies was detected by ELISA and FACS (see 2.2 and 2.3 for the method).

[2] = target: T2, his-tagged human CDH6 extracellular region protein (hCDH6 ECD-his) (human, UniProt P55285 19-615); assay: ELISA, coated antigen
T2 construct: also called Human CDH6-his; hCDH6-his; not shown: his tag
T2 sequence: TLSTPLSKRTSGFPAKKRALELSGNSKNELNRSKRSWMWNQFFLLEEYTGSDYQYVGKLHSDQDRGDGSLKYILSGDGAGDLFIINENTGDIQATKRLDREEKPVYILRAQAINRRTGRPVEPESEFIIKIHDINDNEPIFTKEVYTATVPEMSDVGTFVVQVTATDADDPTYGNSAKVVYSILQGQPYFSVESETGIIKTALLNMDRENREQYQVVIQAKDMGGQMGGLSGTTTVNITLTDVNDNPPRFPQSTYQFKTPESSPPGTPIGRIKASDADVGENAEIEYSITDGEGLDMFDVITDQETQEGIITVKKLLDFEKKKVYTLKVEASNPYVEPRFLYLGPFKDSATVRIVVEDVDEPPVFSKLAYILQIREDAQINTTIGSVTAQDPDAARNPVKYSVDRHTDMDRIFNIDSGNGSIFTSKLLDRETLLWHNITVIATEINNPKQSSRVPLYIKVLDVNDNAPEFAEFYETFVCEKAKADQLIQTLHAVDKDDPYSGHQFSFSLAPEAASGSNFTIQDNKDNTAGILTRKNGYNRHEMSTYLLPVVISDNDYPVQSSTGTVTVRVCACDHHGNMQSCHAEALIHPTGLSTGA

[3] = target: T1, human CDH6 on tumor cells (OVCAR3 …); assay: FACS, OVCAR3 cells, 4° C. arm of endocytosis assay
Experimental: OVCAR3 cells were cultured until a confluence of 90% was reached, the medium was removed by pipetting, the cells were washed once with PBS, and then treated with an enzyme-free cell dissociation solution (Versene, purchased from Gibco, Cat. No. 15040-066) and the cells were collected. The cells were washed once with PBS, counted, resuspended to 2×10⁶ cells/mL in an FACS buffer (PBS+2% FBS), and then added to two 96-well plates at 50 μL/well. The chimeric antibodies were diluted with FACS buffer (PBS+2% FBS) to 10 μg/mL and separately added to the two 96-well plates at 50 μL/well, and the plates were incubated at 4° C. for 1 h. After the cells were washed 3 times with PBS, the cells were resuspended in an FACS buffer. One 96-well plate was incubated at 4° C. for 1 h, and the other 96-well plate was incubated at 37° C. for 1 h. […] After the plates were centrifuged and washed 2 times with PBS, the cells were resuspended in an FACS buffer. The mean fluorescence intensity (MFI) was measured using FACS Canton II (BD). The chimeric antibodies tested all had good endocytic activity.
Some of the antibodies were selected for the endocytic activity assay, and the method for assaying the endocytic activity of the humanized antibodies in OVCAR3 cells was the same as that in 2.4. The humanized antibodies tested all had good endocytic activity.

[4] = target: T2, his-tagged human CDH6 extracellular …; assay: SPR Biacore, antibody captured on Protein A
Experimental: The affinity of the antibody for the antigen was determined by a multi-cycle kinetic method using a BIAcore 8K instrument. In each cycle, the antibody to be tested was captured using a Protein A chip (purchased from GE, Cat. No. 29-1275-56), and then the antigen human CDH6 protein (hCDH6-his, conventionally synthesized) was injected. The association and dissociation processes of the antibody with the antigen protein were recorded, and finally, the chip was regenerated using Glycine pH 1.5, wherein the mobile phase was HBS-EP+ (10 mM HEPES, 150 mM NaCl, 3 mM EDTA, 0.05% surfactant P20, and 1 mM Ca), the flow rate was 30 μL/min, the association time was 240 s, the dissociation time was 300 s, the regeneration time was 30 s, the detection temperature was 25° C., and the antigen concentration was 31.25-1000 nM. The data were analyzed using Biacore 8K analysis software (version No. 2.0) based on the 1:1 binding model to fit the antibody-antigen binding kinetic parameters, including the association rate constant ka, the dissociation rate constant kd, and the equilibrium dissociation constant KD. The affinity values of the control antibody DS-H01L02 were undetectable. Antibodies not shown in the table had undetectable affinity values.
Four hCDH6-6 humanized antibodies with fewer back mutations were selected, and the affinity for human CDH6 protein was further confirmed using Biacore.

[5] = target: T2, his-tagged human CDH6 extracellular …; assay: ELISA, coated antigen; remark: listed apart in the source
Experimental: Human CDH6 protein (hCDH6 ECD-his, conventionally synthesized), monkey CDH6 protein (cynoCDH6 ECD-his, conventionally synthesized; the cynoCDH6 ECD sequence was derived from Uniprot #A0A2K5TW62 (19-615)), and murine CDH6 protein (mCDH6 ECD-his, conventionally synthesized; the mCDH6 ECD sequence was derived from Uniprot #P97326 (19-615)) were diluted with PBS to a final concentration of 1 μg/mL, and added to a 96-well ELISA plate at 100 μL/well. The plate was incubated at 4° C. overnight. The next day, the plate was washed 3 times with a plate washing solution (PBS+0.01% (v/v) Tween 20), and a blocking buffer (PBS+0.01% (v/v) Tween 20+2% (w/w) BSA) was added for blocking at room temperature for 2 h. The blocking buffer was discarded, and the plate was washed 3 times. The chimeric antibodies were diluted with 1% BSA+PBS (purchased from Cytiva, Cat. No. SH30264.01) and added to the 96-well plate at 50 μL/well. After incubation at 37° C. for 2 h, the plate was washed 3 times with a plate washing solution. […] The plate was incubated at 37° C. for 1 h and then washed 5 times with a plate washing solution. A TMB substrate (purchased from Seracare, Cat. No. 5120-0077) was added at 50 μL/well and incubated at room temperature for 10 min, then a stop solution (1.0 N HCl) was added at 50 μL/well. OD450 nm values were read using a microplate reader (Biotek). Analysis was performed by the GraphPad Prism software, data were fitted, and EC50 values were calculated. The chimeric antibodies tested all had strong binding to the human CDH6 protein, the monkey CDH6 protein, and the murine CDH6 protein.
According to the above sequences, heavy chain (HC) and light chain (LC) plasmids were constructed (the nucleic acid sequences encoding the VH and VL of the antibodies were recombined into an expression vector carrying a signal peptide (SEQ ID NO: 132, […]) and a heavy chain constant region/light chain constant region sequence to obtain recombinant plasmids expressing VH—CH1-Fc/VL-CL).

[6] = target: T1, human CDH6 on tumor cells (OVCAR3 …); assay: FACS, OVCAR3 cells
Experimental: as §1
as §2, with “VH—CH1-Fc/VL-CL).” for “VH-CH1-Fc/VL-CL).”, “hCDH6-6” for “hCDH6-14”

EC50 [1]: 0.25 nM
Max MFI [1]: 3890 MFI
EC50 [2]: 0.062 nM
Max OD450 [2]: 2.72 OD450
MFI_4° C. [3]: 16100 MFI
B1: hCDH6-14-H6L3 (antibody, V domains shown)
VH: EVQLVQSGAEVKKPGASVKVSCKASGYTFTDNYINWVRQAPGQRLEWMGWIYPGTGNSYYNEKFKGRVTITVDTSASTAYMELSSLRSEDTAVYLCASSYGDSFDYWGQGTTVTVSS
VL: DIVMTQSPDSLAVSLGERATINCRASQDIRNYLNWYQQKPGQTPKLLISYTSRLHSGVPDRFSGSGSGTDFTLTISSLQAEDVAVYYCQQYSQLPWTFGGGTKVEIK
notes: Humanized

Kd [4]: 138 nM
koff [4]: 0.00607 s⁻¹
kon [4]: 44100 M⁻¹ s⁻¹
EC50 [5]: 0.028 nM
Max OD450 [5]: 2.07 OD450
EC50 [6]: 0.62 nM
Max MFI [6]: 14300 MFI
B2: hCDH6-6-H1L2 (antibody, V domains shown)
VH: EVQLVQSGAEVKKPGASVKVSCKASGYTFTDYYMAWVRQAPGQGLEWMGYIFPNSGGTDYSQKFKGRVTMTVDKSTSTVYMELSSLRSEDTAVYYCARELGADYGDYYAMDHWGQGTTVTVSS
VL: DIQMTQSPSSLSASVGDRVTITCRASENIDSYLAWYQQKPGKSPKLLVYSATLLADGVPSRFSGSGSGTDYTLTISSLQPEDFATYYCQHYYRTPPTFGQGTKLEIK
notes: Humanized

Kd [4]: 192 nM
koff [4]: 0.00743 s⁻¹
kon [4]: 38600 M⁻¹ s⁻¹
EC50 [5]: 0.037 nM
Max OD450 [5]: 2.08 OD450
EC50 [6]: 0.62 nM
Max MFI [6]: 13700 MFI
B3: hCDH6-6-H1L1 (antibody, V domains shown)
VH: B2 VH
VL: B2 VL with V48L
notes: Humanized

Kd [4]: 133 nM
koff [4]: 0.00616 s⁻¹
kon [4]: 46200 M⁻¹ s⁻¹
EC50 [5]: 0.032 nM
Max OD450 [5]: 2.01 OD450
EC50 [6]: 0.61 nM
Max MFI [6]: 14000 MFI
B4: hCDH6-6-H2L1 (antibody, V domains shown)
VH: B2 VH with M70L
VL: B2 VL with V48L
notes: Humanized
